Changes are numbered by the printed parent chain. Each block holds one binder with its values, some of them ahead of it.
Tests used:
AUC = target: the molecule itself; test: AUC
[1] = target: T1, EcoP15I Res subunit, C-terminally His6-tagged (from pQEP15) (UniProt Q5ZND2 1-970); test: second-derivative UV absorption spectroscopy
T1 sequence (looked up): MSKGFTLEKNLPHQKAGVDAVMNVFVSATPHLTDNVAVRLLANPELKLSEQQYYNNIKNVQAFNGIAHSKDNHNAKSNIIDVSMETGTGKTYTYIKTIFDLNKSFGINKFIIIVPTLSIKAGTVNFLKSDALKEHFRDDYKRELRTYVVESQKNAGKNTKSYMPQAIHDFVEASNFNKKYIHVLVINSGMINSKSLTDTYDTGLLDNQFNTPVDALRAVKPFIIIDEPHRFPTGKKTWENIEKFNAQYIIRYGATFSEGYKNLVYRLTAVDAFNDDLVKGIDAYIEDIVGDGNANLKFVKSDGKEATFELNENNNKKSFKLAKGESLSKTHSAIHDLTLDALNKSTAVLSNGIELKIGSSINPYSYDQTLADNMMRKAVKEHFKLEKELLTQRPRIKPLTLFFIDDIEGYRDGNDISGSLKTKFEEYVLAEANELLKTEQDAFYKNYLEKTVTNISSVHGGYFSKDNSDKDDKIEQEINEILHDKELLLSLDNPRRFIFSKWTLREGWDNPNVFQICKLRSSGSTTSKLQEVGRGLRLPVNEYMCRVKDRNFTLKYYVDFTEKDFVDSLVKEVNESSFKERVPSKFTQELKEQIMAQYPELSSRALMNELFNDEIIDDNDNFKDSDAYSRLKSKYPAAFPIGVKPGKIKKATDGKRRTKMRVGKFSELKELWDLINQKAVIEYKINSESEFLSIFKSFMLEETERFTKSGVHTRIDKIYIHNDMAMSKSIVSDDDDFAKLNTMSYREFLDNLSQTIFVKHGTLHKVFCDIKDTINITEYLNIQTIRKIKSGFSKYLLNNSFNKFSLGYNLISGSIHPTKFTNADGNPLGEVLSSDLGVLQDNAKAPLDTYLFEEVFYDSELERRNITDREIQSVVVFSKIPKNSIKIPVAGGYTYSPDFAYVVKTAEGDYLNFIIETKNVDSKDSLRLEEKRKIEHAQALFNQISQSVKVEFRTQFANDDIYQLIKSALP

[2] = target: T1, EcoP15I Res subunit, C-terminally …; test: SEC
[3] = target: T2, EcoP15I Res subunit (earlier preparations from pACYC177, no affinity tag) (UniProt Q5ZND2 1-970); test: densitometry of SDS-PAGE of the purified enzyme
T2 sequence (looked up): T1 sequence (looked up)

[4] = target: EcoP15I Mod subunit;EcoP15I Res subunit (Escherichia coli?;Escherichia coli?, UniProt P12364;Q5ZND2 1-644;1-970, |); test: EMSA
[5] = target: T3, EcoP15I Mod subunit;EcoP15I Res translocase (Tr) domain (Escherichia coli?;Escherichia coli?, UniProt P12364;Q5ZND2 1-644;1-705, |); test: EMSA
T3 sequence 1: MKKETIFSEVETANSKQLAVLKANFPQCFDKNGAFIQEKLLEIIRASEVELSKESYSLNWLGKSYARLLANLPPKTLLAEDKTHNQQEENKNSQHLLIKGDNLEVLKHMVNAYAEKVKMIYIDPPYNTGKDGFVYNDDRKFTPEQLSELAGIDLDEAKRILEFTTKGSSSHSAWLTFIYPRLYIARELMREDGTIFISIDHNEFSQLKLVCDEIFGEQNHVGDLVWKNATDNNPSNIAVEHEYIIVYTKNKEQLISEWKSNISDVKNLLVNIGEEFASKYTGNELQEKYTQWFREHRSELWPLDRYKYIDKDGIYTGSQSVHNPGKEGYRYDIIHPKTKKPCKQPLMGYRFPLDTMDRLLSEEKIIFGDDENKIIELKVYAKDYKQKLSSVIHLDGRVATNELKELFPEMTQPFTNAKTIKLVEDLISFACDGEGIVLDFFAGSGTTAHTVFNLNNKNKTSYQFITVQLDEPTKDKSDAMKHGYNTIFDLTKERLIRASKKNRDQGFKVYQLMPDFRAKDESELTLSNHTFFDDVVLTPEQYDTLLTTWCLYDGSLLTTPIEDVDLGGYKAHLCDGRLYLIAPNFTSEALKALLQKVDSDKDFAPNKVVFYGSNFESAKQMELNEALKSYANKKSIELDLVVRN
T3 sequence 2: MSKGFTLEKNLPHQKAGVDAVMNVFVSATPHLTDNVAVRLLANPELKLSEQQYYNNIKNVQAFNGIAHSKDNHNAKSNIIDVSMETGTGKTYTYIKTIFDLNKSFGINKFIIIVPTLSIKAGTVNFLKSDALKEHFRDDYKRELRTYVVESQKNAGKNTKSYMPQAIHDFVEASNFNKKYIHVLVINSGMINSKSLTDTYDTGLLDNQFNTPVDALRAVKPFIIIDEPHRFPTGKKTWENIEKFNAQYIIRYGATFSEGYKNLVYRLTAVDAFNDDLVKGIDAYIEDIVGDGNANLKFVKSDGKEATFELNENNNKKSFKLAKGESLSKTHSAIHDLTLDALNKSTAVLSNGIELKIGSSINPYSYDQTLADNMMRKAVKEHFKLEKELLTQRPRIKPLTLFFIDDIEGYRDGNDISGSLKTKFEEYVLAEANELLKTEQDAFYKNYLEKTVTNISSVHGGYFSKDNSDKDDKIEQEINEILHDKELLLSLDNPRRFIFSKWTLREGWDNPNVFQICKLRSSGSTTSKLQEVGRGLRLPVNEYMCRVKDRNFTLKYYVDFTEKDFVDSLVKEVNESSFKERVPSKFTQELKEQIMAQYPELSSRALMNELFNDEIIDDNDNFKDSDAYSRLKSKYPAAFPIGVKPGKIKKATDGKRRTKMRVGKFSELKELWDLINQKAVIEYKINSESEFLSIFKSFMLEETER

[6] = target: T4, EcoP15I Res translocase (Tr) domain (UniProt Q5ZND2 1-705); test: EMSA
T4 sequence: T3 sequence 2

[7] = target: T5, EcoP15I Res peptide 126-145 (spot B6) (UniProt Q5ZND2 126-145); test: peptide array
T5 chain: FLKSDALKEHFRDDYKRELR

[8] = target: T6, EcoP15I Res peptide 531-550 (spot F7) (UniProt Q5ZND2 531-550); test: peptide array
T6 chain: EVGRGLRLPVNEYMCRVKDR

[9] = target: T7, EcoP15I Res strongest DNA-binding region (array peptides) (UniProt Q5ZND2 637-670); test: peptide array
T7 chain: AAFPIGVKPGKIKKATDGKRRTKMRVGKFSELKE

B1: EcoP15I MTase (Mod subunit, C-terminally His-tagged) (enzyme, UniProt P12364 1-644, looked up)
chain: T3 sequence 1
- stoichiometry N (AUC): 2

- stoichiometry N [1]: 2 Mod:Res
- Mod:Res ratio in SEC peak 1 [2]: ~1 Mod:Res
- stoichiometry N [2]: 1.8 Mod:Res
B2: EcoP15I Mod subunit (untagged, from pQEP15) (natural protein, UniProt P12364 1-644, looked up)
chain: T3 sequence 1

- stoichiometry N [3]: 1.8 ± 0.15 Mod:Res
B3: EcoP15I Mod subunit (earlier preparations from pACYC177, no affinity tag) (natural protein, UniProt P12364 1-644, looked up)
chain: T3 sequence 1

B4: SR60-1/SR60-1c, dsDNA one site (dsDNA)
DNA 1: GGTCGACGAACCGTAATCGTACCCAGCAGATATCGGTACCGTTCGGTAATATTCCGACGG
DNA 2: CCGTCGGAATATTACCGAACGGTACCGATATCTGCTGGGTACGATTACGGTTCGTCGACC
- Kd [4]: 16 nM
- Kd [5]: 121 nM
- Kd [6]: 128 nM

B5: SR60-1, ssDNA (ssDNA)
DNA: B4 DNA 1
- Kd [4]: 267 nM
- Kd [5]: 346 nM
- Kd [6]: 268 nM

B6: SR60-0/SR60-0c, dsDNA no site (dsDNA)
DNA 1: B4 DNA 1 with C24G, G26A, A28C
DNA 2: B4 DNA 2 with T33G, C35T, G37C
- Kd [4]: 37 nM
- Kd [5]: 160 nM
- Kd [6]: 93 nM

B7: KW30-1/KW30-1c, specific dsDNA (dsDNA)
DNA 1: CGTAATCGTACCCAGCAGATATCGGTACCG
DNA 2: CGGTACCGATATCTGCTGGGTACGATTACG
- binding result [7]: no binding
- binding result [8]: no binding
- binding result [9]: binds

Source: PMC3333885 (Nucleic Acids Research, 2011)
